Measurements reported in the supplement of paper PMC9732359.
± gives the uncertainty stated by the source.

Assay: protein stability index of a GFP-peptide fusion (yeast GPS) (PSI 1-4); higher = more stable; sorted into four equal gates, so the index is relative within each strain
Summary of the method: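 Plasmids in a pooled yeast library fused tiled 17-residue yeast protein peptides downstream of GFP and also expressed Cherry. Mid-log cultures grown without leucine were sorted into four equal gates by GFP/Cherry fluorescence ratio. Each gate's plasmids were PCR-amplified and Illumina-sequenced, and reads were matched to strains by barcodes. The protein stability index is derived by multiplying each gate's read frequency by its gate number and summing the results.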

LEPFLLMLEDTDGDSIL [BRR2]
protein stability index (doa10∆): 2.71 ± 0.071
protein stability index (pdr5∆): 3.06 ± 0.089
protein stability index (san1∆): 3.05 ± 0.073
protein stability index (ubr1∆): 3.1 ± 0.05

EDPKRRADTMDFKTDVD [YJL039C/NUP192]
protein stability index (doa10∆): 3.29 ± 0.1
protein stability index (pdr5∆): 3.51 ± 0.086
protein stability index (san1∆): 3.4 ± 0.096
protein stability index (ubr1∆): 3.24 ± 0.1

AITISNSIDINYKGLPK [SMC1]
protein stability index (doa10∆): 2.48 ± 0.063
protein stability index (pdr5∆): 2.83 ± 0.054
protein stability index (san1∆): 2.54 ± 0.073
protein stability index (ubr1∆): 2.98 ± 0.039

QTGTRRNSKLLNTKSIQ [MCD1]
protein stability index (doa10∆): 3.29 ± 0.2
protein stability index (pdr5∆): 3.19 ± 0.18
protein stability index (san1∆): 3.05 ± 0.085
protein stability index (ubr1∆): 3.2 ± 0.072

LLTLIVREYEQPDANKK [ISW2]
protein stability index (san1∆): 3.09 ± 0.2

SWNESEDTLSGYDPIVS [PRP28]
protein stability index (doa10∆): 3.04 ± 0.12
protein stability index (pdr5∆): 3.14 ± 0.12
protein stability index (san1∆): 3.19 ± 0.076
protein stability index (ubr1∆): 3.44 ± 0.06

KDEEETEYFENKQSVSN [DSN1]
protein stability index (doa10∆): 3.46 ± 0.12
protein stability index (pdr5∆): 3.4 ± 0.091
protein stability index (san1∆): 3.31 ± 0.085
protein stability index (ubr1∆): 3.53 ± 0.054

SRMTVGKMIELISGKAG [RET1]
protein stability index (doa10∆): 3.14 ± 0.17
protein stability index (pdr5∆): 2.98 ± 0.15
protein stability index (san1∆): 3.05 ± 0.094
protein stability index (ubr1∆): 3.12 ± 0.13

IEQEKQEQQEQDKKKKS [PRE6]
protein stability index (doa10∆): 2.17 ± 0.069
protein stability index (pdr5∆): 1.82 ± 0.06
protein stability index (san1∆): 2.59 ± 0.077
protein stability index (ubr1∆): 1.59 ± 0.049

PKNLLKKFIEISDVKIQ [PRP8]
protein stability index (doa10∆): 1.76 ± 0.064
protein stability index (pdr5∆): 1.88 ± 0.067
protein stability index (san1∆): 1.76 ± 0.13
protein stability index (ubr1∆): 2.26 ± 0.05

MTQRAIQSAESIKSQKE [SWI3]
protein stability index (doa10∆): 2.27 ± 0.12
protein stability index (pdr5∆): 1.74 ± 0.082
protein stability index (san1∆): 2.5 ± 0.14
protein stability index (ubr1∆): 1.7 ± 0.13

MRRNSKILNIIKCSQSS [POP5]
protein stability index (doa10∆): 1.92 ± 0.049
protein stability index (pdr5∆): 2.27 ± 0.082
protein stability index (san1∆): 2.1 ± 0.073
protein stability index (ubr1∆): 2.21 ± 0.046

IYRVRVRRGNRKRPVPK [RPL15A]
protein stability index (pdr5∆): 2.86 ± 0.2
protein stability index (ubr1∆): 3.2 ± 0.14

IVKASNWRLVEVGRVVL [RPL14A]
protein stability index (doa10∆): 2.8 ± 0.1
protein stability index (pdr5∆): 1.43 ± 0.13
protein stability index (ubr1∆): 1.69 ± 0.089

TVTSLDVVYALKRQGRT [HHF1]
protein stability index (doa10∆): 3.55 ± 0.18
protein stability index (pdr5∆): 3.26 ± 0.13
protein stability index (san1∆): 3.18 ± 0.086
protein stability index (ubr1∆): 2.31 ± 0.076

ADITDGNNTELTKTTVN [YCG1]
protein stability index (doa10∆): 3.19 ± 0.078
protein stability index (pdr5∆): 3.22 ± 0.068
protein stability index (san1∆): 3.33 ± 0.052
protein stability index (ubr1∆): 3.09 ± 0.053

MSLTTAAPLLALLRENQ [RPN2]
protein stability index (doa10∆): 2.6 ± 0.19
protein stability index (pdr5∆): 3.31 ± 0.25
protein stability index (san1∆): 2.8 ± 0.12
protein stability index (ubr1∆): 3.05 ± 0.08

EIFIRCNNVLYIRELPN [SMX3]
protein stability index (pdr5∆): 1.75 ± 0.18
protein stability index (san1∆): 1.53 ± 0.12
protein stability index (ubr1∆): 1.48 ± 0.12

MDFFNLNNNNNNNNTTT [SWI1]
protein stability index (doa10∆): 2.97 ± 0.072
protein stability index (pdr5∆): 3.33 ± 0.081
protein stability index (san1∆): 2.53 ± 0.13
protein stability index (ubr1∆): 2.35 ± 0.067

FDNVASVFMPLIFIACN [ECM29]
protein stability index (doa10∆): 2.9 ± 0.048
protein stability index (pdr5∆): 2.72 ± 0.038
protein stability index (san1∆): 2.57 ± 0.045
protein stability index (ubr1∆): 2.71 ± 0.032

GTLGEIFIRCNNVLYIR [SMX3]
protein stability index (doa10∆): 3.57 ± 0.21
protein stability index (pdr5∆): 3.27 ± 0.1
protein stability index (san1∆): 2.9 ± 0.1
protein stability index (ubr1∆): 3.26 ± 0.1

KFKKEKFDIIIVDTSGR [SRP54]
protein stability index (doa10∆): 2.84 ± 0.046
protein stability index (pdr5∆): 3.01 ± 0.036
protein stability index (san1∆): 2.95 ± 0.034
protein stability index (ubr1∆): 3.1 ± 0.04

RNMAEEFEYDDEPDEQG [CYT1]
protein stability index (doa10∆): 3.12 ± 0.073
protein stability index (pdr5∆): 3.17 ± 0.061
protein stability index (san1∆): 3.17 ± 0.064
protein stability index (ubr1∆): 3.09 ± 0.059

QEASQVTFIFGELKRGN [MED11]
protein stability index (doa10∆): 2.07 ± 0.062
protein stability index (pdr5∆): 2.75 ± 0.052
protein stability index (san1∆): 2.75 ± 0.066
protein stability index (ubr1∆): 2.6 ± 0.043

GIKLQMQNSKVESVCQK [SMC4]
protein stability index (doa10∆): 2.55 ± 0.074
protein stability index (pdr5∆): 2.45 ± 0.077
protein stability index (san1∆): 2.59 ± 0.08
protein stability index (ubr1∆): 2.5 ± 0.084

SVQTFGKKKSATAVAHV [RPS16A]
protein stability index (doa10∆): 2.37 ± 0.065
protein stability index (pdr5∆): 2.49 ± 0.069
protein stability index (san1∆): 2.19 ± 0.11
protein stability index (ubr1∆): 2.1 ± 0.069

LKHVLQLIFRQQTGLVD [SNU114]
protein stability index (doa10∆): 1.23 ± 0.075
protein stability index (pdr5∆): 1.58 ± 0.076
protein stability index (san1∆): 1.68 ± 0.12
protein stability index (ubr1∆): 1.2 ± 0.049

EELLQLFLNNFVSRIPI [IRR1]
protein stability index (doa10∆): 3.12 ± 0.058
protein stability index (pdr5∆): 2.74 ± 0.055
protein stability index (san1∆): 2.75 ± 0.054
protein stability index (ubr1∆): 2.7 ± 0.041

YITLKATFLKDDLPYYV [QCR2]
protein stability index (doa10∆): 2.42 ± 0.047
protein stability index (pdr5∆): 2.17 ± 0.049
protein stability index (san1∆): 2.51 ± 0.054
protein stability index (ubr1∆): 2.44 ± 0.039

AKSMAFLKEVLSDLSSP [YML103C/NUP188]
protein stability index (doa10∆): 2.97 ± 0.079
protein stability index (pdr5∆): 3.1 ± 0.079
protein stability index (san1∆): 2.79 ± 0.11
protein stability index (ubr1∆): 2.95 ± 0.065

EQVKDDGTSTEKTFLHL [RPN8]
protein stability index (doa10∆): 3.28 ± 0.12
protein stability index (pdr5∆): 3.66 ± 0.13
protein stability index (san1∆): 3.42 ± 0.05
protein stability index (ubr1∆): 3.46 ± 0.082

MKVLEERNAFLSDYEVL [RPC17]
protein stability index (pdr5∆): 2.77 ± 0.27

FSLLVKAEIPPEYAKVG [SIN4]
protein stability index (doa10∆): 2.54 ± 0.063
protein stability index (pdr5∆): 2.45 ± 0.045
protein stability index (san1∆): 2.52 ± 0.057
protein stability index (ubr1∆): 2.72 ± 0.036

FIMVKGCIPGNRKRIVT [RPL3]
protein stability index (doa10∆): 1.39 ± 0.063
protein stability index (pdr5∆): 1.48 ± 0.08
protein stability index (san1∆): 1.57 ± 0.2
protein stability index (ubr1∆): 1.28 ± 0.06

VNISAVDNTTEQSNSRK [YCG1]
protein stability index (doa10∆): 3.26 ± 0.23
protein stability index (pdr5∆): 2.35 ± 0.28
protein stability index (san1∆): 3.1 ± 0.25

ITQMRVNDEEEHKQLVA [RPC82]
protein stability index (doa10∆): 3.29 ± 0.13
protein stability index (pdr5∆): 2.92 ± 0.099
protein stability index (san1∆): 2.82 ± 0.13
protein stability index (ubr1∆): 3.34 ± 0.16

IYLSRFLIKASVREINL [SSN8]
protein stability index (doa10∆): 1.83 ± 0.18
protein stability index (pdr5∆): 1.86 ± 0.13
protein stability index (san1∆): 2.04 ± 0.13
protein stability index (ubr1∆): 1.25 ± 0.16

REKVRKLSQYVQEMALG [FAS2]
protein stability index (doa10∆): 2.86 ± 0.11
protein stability index (pdr5∆): 3.41 ± 0.11
protein stability index (san1∆): 3.15 ± 0.071
protein stability index (ubr1∆): 3.24 ± 0.067

VTMGAKDKLREFIPHST [RPN6]
protein stability index (doa10∆): 3.46 ± 0.11
protein stability index (pdr5∆): 3.1 ± 0.14
protein stability index (san1∆): 2.96 ± 0.099
protein stability index (ubr1∆): 3.04 ± 0.11

HDELDMNECIADQDMED [ESC2]
protein stability index (doa10∆): 3.22 ± 0.092
protein stability index (pdr5∆): 2.64 ± 0.11
protein stability index (san1∆): 2.87 ± 0.07
protein stability index (ubr1∆): 2.97 ± 0.074

YSQSPPRSPGRSPTRRL [SMC4]
protein stability index (doa10∆): 2.57 ± 0.15
protein stability index (pdr5∆): 3.19 ± 0.11
protein stability index (san1∆): 2.98 ± 0.089
protein stability index (ubr1∆): 3.04 ± 0.11

RSDLQSKIQEIESIRSC [YIL149C/MLP2]
protein stability index (doa10∆): 1.89 ± 0.058
protein stability index (pdr5∆): 2.79 ± 0.09
protein stability index (san1∆): 2.67 ± 0.099
protein stability index (ubr1∆): 2.52 ± 0.089

IHSKSMSVERGIRWELI [RPT1]
protein stability index (doa10∆): 3.06 ± 0.068
protein stability index (pdr5∆): 3 ± 0.073
protein stability index (san1∆): 2.88 ± 0.071
protein stability index (ubr1∆): 3.04 ± 0.063

LARDTPSANNSSSIKST [RRP4]
protein stability index (doa10∆): 2.86 ± 0.076
protein stability index (pdr5∆): 2.91 ± 0.057
protein stability index (san1∆): 2.97 ± 0.047
protein stability index (ubr1∆): 3.14 ± 0.054

LLHSKPSLLLQKDQDGR [NAS6]
protein stability index (doa10∆): 3.22 ± 0.22
protein stability index (pdr5∆): 3.33 ± 0.13

DAVKDFKLGKFNYVAVG [QCR2]
protein stability index (doa10∆): 3.2 ± 0.24
protein stability index (pdr5∆): 1.52 ± 0.14

KPFLKKTQEYYTQYTND [CDC53]
protein stability index (doa10∆): 3.02 ± 0.061
protein stability index (pdr5∆): 3.12 ± 0.053
protein stability index (san1∆): 3.07 ± 0.044
protein stability index (ubr1∆): 3.01 ± 0.046

NENSNCLLSIPKSTKGK [YML103C/NUP188]
protein stability index (doa10∆): 2.04 ± 0.05
protein stability index (pdr5∆): 1.99 ± 0.044
protein stability index (san1∆): 2.61 ± 0.05
protein stability index (ubr1∆): 2.35 ± 0.043

AGFTHKLSNWLFGWNDL [YDL088C/ASM4]
protein stability index (doa10∆): 2.69 ± 0.065
protein stability index (pdr5∆): 3.06 ± 0.059
protein stability index (san1∆): 2.9 ± 0.063
protein stability index (ubr1∆): 2.93 ± 0.037

IIKENVKVARLAGKYIP [FAS1]
protein stability index (doa10∆): 1.73 ± 0.23
protein stability index (pdr5∆): 1.6 ± 0.27
protein stability index (ubr1∆): 1.82 ± 0.1

IRNIVEAAAVRDLSEAS [RPS26A]
protein stability index (doa10∆): 2.07 ± 0.066
protein stability index (pdr5∆): 2.39 ± 0.082
protein stability index (san1∆): 2.39 ± 0.079
protein stability index (ubr1∆): 2.49 ± 0.077

KTGTKPAAVFTETLKHD [RPL4A]
protein stability index (doa10∆): 2.24 ± 0.077
protein stability index (pdr5∆): 2.19 ± 0.17
protein stability index (san1∆): 1.74 ± 0.15
protein stability index (ubr1∆): 2.54 ± 0.11

DSEGSIKQTSDESTIKR [ECM29]
protein stability index (doa10∆): 3.43 ± 0.11
protein stability index (pdr5∆): 3.56 ± 0.085
protein stability index (san1∆): 3.43 ± 0.068
protein stability index (ubr1∆): 3.41 ± 0.063

DPEKDSINATALAFGYV [SIN4]
protein stability index (doa10∆): 2.16 ± 0.052
protein stability index (pdr5∆): 1.56 ± 0.058
protein stability index (san1∆): 1.52 ± 0.15
protein stability index (ubr1∆): 1.82 ± 0.042
